The source of these data is paper PMC10058294, “Interaction of SARS-CoV-2 Nucleocapsid Protein and Human RNA Helicases DDX1 and DDX3X Modulates Their Activities on Double-Stranded RNA”.

Data set [1] has as its target T1, SARS-CoV-2 nucleocapsid protein (Np) (SARS-CoV-2, UniProt P0DTC9 1-419). In words: EMSA; apparent, cooperative fit. To be noted: protein: recombinant; tags: His (pET30a(+), Ni-NTA purified); chain copies: 2; label: 5'-FAM on the 18 mer. Background: In EMSA bound probe runs differently from free probe, usually more slowly.
For data set [2], the target named is SARS-CoV-2 nucleocapsid protein (Np);DDX3X (SARS-CoV-2;Homo sapiens, UniProt P0DTC9;O00571 1-419;1-662, |). In words: EMSA; Np titrated with fixed DDX3X. To be noted: protein: recombinant;recombinant; tags: His (pET30a(+), Ni-NTA purified);pET30a(+) vector; label: 5'-FAM on the 18 mer.
Data set [3] has as its target SARS-CoV-2 nucleocapsid protein (Np);DDX1 (SARS-CoV-2;Homo sapiens, UniProt P0DTC9;Q92499 1-419;1-740, |). In words: EMSA; Np titrated with fixed DDX1. As to conditions: protein: recombinant;recombinant; tags: His (pET30a(+), Ni-NTA purified);pET30a(+) vector; label: 5'-FAM on the 18 mer.
In data set [4] the target is T1, SARS-CoV-2 nucleocapsid protein (Np). In words: EMSA. To be noted: protein: recombinant; tags: His (pET30a(+), Ni-NTA purified); chain copies: 2; label: 5'-FAM on the 18 mer.
The target is the same in data set [5]. The experiment in a line: EMSA; time course. To be noted: protein: recombinant; tags: His (pET30a(+), Ni-NTA purified); chain copies: 2; label: 5'-FAM; single strand.

Values joined by “and” are separate entries in the source; they are usually repeats but may differ in a detail not shown here. Equal entries are not always repeated.

B1: 18/38 mer FAM partially dsRNA (dsRNA)
RNA 1: AUGAAGGUUUGAGUUGAGUGGAGAUAGUGGAGGGUAGU
RNA 2: CUCAACUCAAACCUUCAU
B1: the Kd is 0.17 µM in data set [1]; 0.08 µM in data set [2]; 0.04 µM in data set [3]; 0.193 µM and 0.3 µM in data set [4].

In the case of CUCAACUCAAACCUUCAU (ssRNA) [ssRNA 18 mer FAM], the binding result in data set [5] is reported as “binds”.
